{
  "source": "paper doi:10.1101/2023.08.13.546412",
  "about": "(bioRxiv, 2023)",
  "binders": {"B1": {"name": "MBP-WOX5 (natural protein, Arabidopsis thaliana, UniProt Q8H1D2 1-182, looked up)", "chain": "MSFSVKGRSLRGNNNGGTGTKCGRWNPTVEQLKILTDLFRAGLRTPTTDQIQKISTELSFYGKIESKNVFYWFQNHKARERQKRRKISIDFDHHHHQPSTRDVFEISEEDCQEEEKVIETLQLFPVNSFEDSNSKVDKMRARGNNQYREYIRETTTTSFSPYSSCGAEMEHPPPLDLRLSFL"}},
  "molecular_target": "T1, GST-AtSK21 (Arabidopsis thaliana, UniProt Q39011 1-380)",
  "T1 sequence (looked up)": "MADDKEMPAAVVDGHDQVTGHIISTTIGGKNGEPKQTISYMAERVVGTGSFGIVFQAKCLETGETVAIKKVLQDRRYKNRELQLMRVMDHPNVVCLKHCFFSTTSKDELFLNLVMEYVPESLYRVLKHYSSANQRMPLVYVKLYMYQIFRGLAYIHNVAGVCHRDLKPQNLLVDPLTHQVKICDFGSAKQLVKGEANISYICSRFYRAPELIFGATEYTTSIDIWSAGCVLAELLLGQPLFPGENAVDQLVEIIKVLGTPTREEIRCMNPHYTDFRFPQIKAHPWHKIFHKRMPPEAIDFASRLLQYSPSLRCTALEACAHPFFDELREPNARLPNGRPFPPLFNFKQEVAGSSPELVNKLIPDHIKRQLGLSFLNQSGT",
  "experiment": "pull-down",
  "data": [
    {"binder": "B1", "values": [
      {"measurement": "binding result", "value": "binds"}
    ]}
  ]
}
